Reference: US20040258682A1
Each block holds one molecule with its values, some of them ahead of it.

Experiments:
[1] = target: CD22, the LL2 antigen on the surface of Raji B-lymphoma cells (UniProt P20273); experiment: Raji cell binding assay
[2] = target: CD22, the LL2 antigen on the surface of Raji B-lymphoma cells (UniProt P20273); experiment: cell surface binding assay, calculated from ID50 values
[3] = target: CD22, the LL2 antigen on the surface of Raji B-lymphoma cells (UniProt P20273); experiment: cell-based or functional assay
[4] = target: WN, LL2 anti-idiotype antibody; experiment: WN competitive blocking assay, from ID50 against unmodified control F(ab′)2
[5] = target: WN, LL2 anti-idiotype antibody; experiment: WN competitive blocking assay, F(ab′)2 competing with mLL2; parameters: unit not given beside the values

Molecule: DOX-LL2 (doxorubicin-dextran-LL2 F(ab′)2 conjugate of Example 9)
immunoreactivity (% of control values) [1]: 80%

Molecule: mLL2 F(ab′)2 fragment
Immunoreactivity (%), cell binding [2]: 100%

Molecule: cLL2Q (chimeric LL2 with the NVT to QVT mutation in VK FR1) (antibody)
rate of antibody internalization (Ke) by Raji cells [3]: 0.122

Molecule: murine LL2 monoclonal antibody
rate of antibody internalization (Ke) by Raji cells [3]: 0.107

Continued, values first:

Immunoreactivity (%), cell binding [2]: 41.9%
Molecule: mLL2 F(ab′)2 fragment conjugated with dextran-DOX at the VK-appended carbohydrate

Immunoreactivity, % of hLL2 [4]: 100%
ID50 [5]: 0.384
B1: hLL2 F(ab′)2 fragment (protein, INN chains, looked up)
VH: QVQLVQSGAEVKKPGSSVKVSCKASGYTFTSYWLHWVRQAPGQGLEWIGYINPRNDYTEYNQNFKDKATITADESTNTAYMELSSLRSEDTAFYFCARRDITTFYWGQGTTVTVSS
VL: DIQLTQSPSSLSASVGDRVTMSCKSSQSVLYSANHKNYLAWYQQKPGKAPKLLIYWASTRESGVPSRFSGSGSGTDFTFTISSLQPEDIATYYCHQYLSSWTFGGGTKLEIK
modifications: F(ab')2
